Test results as given in the supplement of paper PMC12764529.
± gives the half width of the 95% confidence interval.

Legend:
[1] = folding stability dG unfold from trypsin proteolysis; higher = more stable
Summary of the method: (§1)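 Bayesian fitting of sequencing counts gave K50 for each design. Unfolding free energy followed by setting this against a sequence-predicted unfolded-state K50 and a shared folded-state K50, either per protease or with trypsin and chymotrypsin combined. The designs, under 80 residues and lacking cysteine, were digested in a PA-tagged cDNA display format at 11 threefold-diluted protease concentrations and without protease, and only those with AlphaFold2 dimer inter-PAE above 15 were kept.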

[2] = folding stability dG unfold from chymotrypsin proteolysis; higher = more stable
Summary of the method: as §1

[3] = folding stability dG unfold (combined trypsin and chymotrypsin); higher = more stable
Summary of the method: as §1

Row | Sequence | folding stability dG unfold [1] [kcal/mol] | folding stability dG unfold [2] [kcal/mol] | folding stability dG unfold [3] [kcal/mol]
1 | SSSGTDPLTVRVTVTLTDPSTGKETLLEYEVEVPPGTPVEVELPDVPPSASVTVEVYDPGGVRIGTRTLPSA [r9_478_JUSTAS] | 1.81 ± 0.14 | 1.78 ± 0.11 | 1.95 ± 0.4
2 | SAGGSAGGSAGGIAEALKAAFPDEGVEVVSIHPDGKVEVRVDGTPELREKVEKAVKELLSSAGGSAGGSAGG [r11_418_TrMRF] | 1.08 ± 0.087 | 0.621 ± 0.067 | 0.798 ± 0.18
3 | SAPLTPEEAEEWAETLADELADKAGIPNVEIKVEPSPDGYWTAEIRFPNNGKKIRITWENGRPKITEIESAG [r14_925_TrROS] | 2.84 ± 0.2 | 2.63 ± 0.093 | 2.74 ± 0.16
4 | SAGGMEIKVTVEKREDGYLVVTVEKAESKEEAIEAIKKELREKYPDAEITITDKDGNTIVIKLKDLKSAGGS [r8_236_TrROS_Hall] | 1.16 ± 0.071 | 2.52 ± 0.1 | 2.06 ± 0.067
5 | SAGGMTLEELKEALKKLPPNVKEVKITVVEKNGKLVVVVEVNGKKLVIEFDSEEERKLAEELVKELLSSAGG [r13_287_TrROS_Hall] | 3.75 ± 0.32 | 3.13 ± 0.16 | 3.45 ± 0.24
6 | SFHVERDPEDNTIYIHFPPGMDPLELAKSLLKELREQQDDGPIKIHVHYGDWVFEIDIKKGKIEVRPPGESA [r9_224_TrROS] | 1.41 ± 0.1 | 1.19 ± 0.16 | 1.23 ± 0.18
7 | SAGGSAGGSMYVVRAVIRRPKAVPPPLAEEEIDIPVADREITAEEIARLFTPPGYELVRIEADSAGGSAGGS [r12_611_TrMRF] | -0.177 ± 0.19 | -0.36 ± 0.24 | -0.225 ± 0.14
8 | SAGGSAGGSEVLEVVLPRPDGRLVLLRVDPEGRLALVVFPDGSVRVFEVESPEEAVQRVLDAESAGGSAGGS [r12_866_TrMRF] | 1.92 ± 0.054 | 2.6 ± 0.034 | 2.41 ± 0.07
9 | SGMTVTPVTHPNGQTLTLTFDPETGTVTVNRSPAISLEEVKAALEALIPSDRSVTVSTLPDGTAAVTLTASA [r9_933_JUSTAS] | 1.36 ± 0.04 | 1.06 ± 0.1 | 1.27 ± 0.059
10 | SAGPAPGAPWEKVEIVAEAWVPTAGGKAVPVVLARAPDGSLLATFPDGTVRVVVPGAGPEVTVELPLASAGG [r19_199_TrMRF] | 0.115 ± 0.046 | 2.032 ± 0.016 | 1.62 ± 0.065
11 | SAGGSAGGSAGGFTIKIETRPMPMFSKDGKPLAEMNMYRIKIEVPDMPPGLADKLIDLIQSAGGSAGGSAGG [r7_450_TrROS] | 1.66 ± 0.11 | 2.67 ± 0.097 | 2.67 ± 0.22
12 | SLKPGETKTLTLLIRTKDPEKTAEELAEEARKEIEELLPPGVKIEVKVTSVEPLPETGEVDVTVEVTVTASA [r9_706_TrMRF] | 3.02 ± 0.19 | 3.01 ± 0.06 | 2.97 ± 0.13
13 | SAGGSAGGSATLTLELEIEVDGVRFRVRAELRLDEDGRLHLRVEIEVEPLPPPPPLVAEGEELSAGGSAGGS [r20_30_TrROS_Hall] | 2.88 ± 0.14 | 4.33 ± 0.23 | 4.05 ± 0.3
14 | SAGGSALPPGQEVEITIMIMVMIYNPENGRMWMVMASVEIEIRVDPKNGKLEIKIKKISISIFPMDSAGGSA [r15_517_TrROS] | 4.23 ± 0.72 | 5.8 ± 0.52 | > 6
15 | SAGMPITVDSEVDPETGTTTYTITMPRGPGEPVTVTIPVTYSDDSVTIEVTASPGVDAAEIKALIEKQSSAG [r5_478_JUSTAS] | 0.645 ± 0.053 | 0.34 ± 0.22 | 0.597 ± 0.11
16 | SAGGSAGGSAPWRIRIRDPNGKKVEIPWEEVADKFGIPPEEMTLDDILEAFANNIDRIEIVDSAGGSAGGSA [r18_403_TrROS] | 0.91 ± 0.067 | 0.361 ± 0.12 | 0.64 ± 0.081

Row | Sequence | folding stability dG unfold [1] [kcal/mol] | folding stability dG unfold [2] [kcal/mol] | folding stability dG unfold [3] [kcal/mol]
17 | SAGGSAGGSKKVKEVTITVKNKDGKTVKITKIYKKKDGSKYVLIKDKKTKKTYKISLEDLKKLSAGGSAGGS [r12_488_TrROS_Hall] | 1.11 ± 0.05 | 2.29 ± 0.076 | 1.8 ± 0.14
18 | SAGGSKKKIEKIEIEIEIKNKDGKTYKIKAEIEKVELKDGKVAKIRLEIYNENGEKIAEFEFEIKISAGGSA [r2_215_TrROS_Hall] | 2.08 ± 0.15 | 4.03 ± 0.19 | 3.61 ± 0.23
19 | SAPDKIEIPITFPNGYTFWIKIDPDRIRVTWMDNGLRREKEITPDGMIKLDFRMPNGRPIMSPTIPLEDSAG [r14_213_TrROS] | 0.984 ± 0.028 | 1.93 ± 0.12 | 1.54 ± 0.059
20 | SAGGSAGGSAGGELKLLSVEEGPNETYTVSSSDGKLTVYTKPPDGSWKSTSLPLEPELLSAGGSAGGSAGGS [r10_99_JUSTAS] | -0.277 ± 0.057 | 0.317 ± 0.14 | 0.194 ± 0.1
21 | SAKTVKVRIELTLTVVKVTLDPETGELKVEEVKTLTLEIELEMSEEDLEKARRALEEELKRLLEELGIPSAG [r14_308_TrROS_Hall] | 3.64 ± 0.29 | 3.78 ± 0.33 | 3.9 ± 0.37
22 | SAMKKIKLSPEALELAKKLPPDYKVTEIKVEKLEDGTVVVTLTVEKTNENGEKEKVELTIVLDKDGKPVSAG [r14_420_TrROS_Hall] | 0.619 ± 0.065 | 0.0295 ± 0.46 | 0.757 ± 0.37
23 | SAGGSAMVLVRIKLKHPEREEVIEVPAGELLEILEHPELNEHWEIVEIEAREVPPEFVEPEELEEESAGGSA [r15_460_TrMRF] | 0.85 ± 0.087 | 0.896 ± 0.18 | 0.888 ± 0.13
24 | SAGKKTIMIFIPGNMPLDTLKSALRNLPPNVEIHIMYPGQMQTITYDPDDIEIELPPGFPNFYIMIEVPSAG [r5_373_TrROS] | 2.68 ± 0.13 | 2.646 ± 0.017 | 2.72 ± 0.057
25 | SAGGSAGGMKVVVKFTVRPRDPDTDEAVPAELVLEFDSLEEALAAAEELAALPEGTEIEIEVLTSAGGSAGG [r6_999_TrMRF] | 2.2 ± 0.058 | 1.76 ± 0.031 | 1.96 ± 0.088
26 | SAGGSAETAIDLGPPNTTGVLEIEYFDENGNTRRATATFDPNPATISFNEPVEIPPNARIEIKPTSSAGGSA [r15_198_TrMRF] | -0.405 ± 0.21 | 0.857 ± 0.064 | 0.545 ± 0.14
27 | SKKKTLKIVDKETNVVIEMTAEELAEKLGLSVEDLEIEVVDLKTKEVKTIKIKLPKPKPEEKKKVKEEEKSA [r9_819_TrROS_Hall] | -0.336 ± 0.23 | 1.18 ± 0.046 | 0.75 ± 0.15
28 | SAGMPLSVEEAIALLRKEIEAIPVPPSVTEIEFEITIPADGRPVKITVKVNEGKLEITVTVGDKPIKIGSAG [r14_199_JUSTAS] | 1.79 ± 0.14 | 2.3 ± 0.07 | 2.17 ± 0.11
29 | SAARKIAKKLKEAFPNFPIKDIEITEYEPNPNGRPYMNISIQFPNGGKMEIQFDDPEHPEIREAIREIMSAG [r14_143_TrROS] | 1.59 ± 0.11 | 1.69 ± 0.086 | 1.49 ± 0.19
30 | SAGGSAGGMTLTVDLPLPDGGTVRLEVEPLPDGTVRVRLTYPDGRKAEFETSAPVEVLLERAAGSAGGSAGG [r6_808_TrMRF] | 1.61 ± 0.026 | 3.05 ± 0.054 | 2.69 ± 0.086
31 | SAGGSAGGSKEFKVEEVGGRLYITFPDGTVVEVRFDKPVTFDLKTGKLYFPEGAEVEKRRLKESAGGSAGGS [r20_158_TrROS_Hall] | 0.0253 ± 0.24 | 1.19 ± 0.12 | 0.905 ± 0.26
